Laboratory results taken from US20110171749A1.

Molecular target: streptavidin (UniProt P22629)
Assay: polyaniline polymeric wire biosensor, streptavidin on NC membrane, pulse mode voltammetry

- resistance: 4.3 kΩ
Substance: biotin conjugate goat anti-mouse IgG (whole molecule), conjugated with magnetic composite Fe2O3/polyaniline particles (antibody)
